The data set deals with T1, RBP45d (Arabidopsis thaliana, UniProt Q8VXZ9 1-425).
T1 sequence: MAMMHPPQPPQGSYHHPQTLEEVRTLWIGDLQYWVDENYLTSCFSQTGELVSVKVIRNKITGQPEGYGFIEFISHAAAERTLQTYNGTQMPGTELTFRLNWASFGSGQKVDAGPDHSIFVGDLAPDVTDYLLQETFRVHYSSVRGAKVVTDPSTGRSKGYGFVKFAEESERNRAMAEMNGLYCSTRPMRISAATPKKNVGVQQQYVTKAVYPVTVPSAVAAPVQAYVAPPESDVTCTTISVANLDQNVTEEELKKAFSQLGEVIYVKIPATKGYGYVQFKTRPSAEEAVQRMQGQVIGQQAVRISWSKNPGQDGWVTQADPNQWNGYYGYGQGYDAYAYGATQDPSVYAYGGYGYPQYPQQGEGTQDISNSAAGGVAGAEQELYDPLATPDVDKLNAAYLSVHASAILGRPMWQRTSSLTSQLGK
Kind of data set: EMSA.

Turning to GUUUUGUUCGGUUUUGGUUUAGAUUUUUG (ssRNA) [Cy5-LPD1-IN2], the binding result is given as “binds”.

For the origin of these results see publication doi:10.1101/2022.08.12.503727.
